From the supplement of paper PMC9732359
± gives the uncertainty stated by the source.

Test: protein stability index of a GFP-peptide fusion (yeast GPS) (PSI 1-4); higher = more stable; sorted into four equal gates, so the index is relative within each strain
In short: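 The protein stability index of a peptide was calculated by multiplying its read frequency in each gate by that gate's number and adding the products. The peptides were tiled 17-residue stretches of yeast proteins, fused downstream of GFP on a Cherry-expressing plasmid and carried in yeast as a pooled library. Mid-log cultures in leucine-free medium were sorted into four equal gates by GFP/Cherry ratio, and each gate's plasmids were PCR-amplified and Illumina-sequenced.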

| Sequence | protein stability index (doa10∆) | protein stability index (pdr5∆) | protein stability index (san1∆) | protein stability index (ubr1∆) |
| --- | --- | --- | --- | --- |
| KESEISHNENKMDFSSK [YIL149C/MLP2] | 2.99 ± 0.086 | 3 ± 0.093 | 3.16 ± 0.086 | 3.19 ± 0.24 |
| LDALTRHIKSKHEDLSL [RPN4] | 2.54 ± 0.062 | 2.08 ± 0.068 | 1.57 ± 0.089 | 2.61 ± 0.059 |
| TRAMEYLKFRELPAGQN [RPB2] | 2.4 ± 0.072 | 2.75 ± 0.084 | 3.13 ± 0.071 | 3.02 ± 0.13 |
| QFASPVRWIETQDVFLK [FAS2] | 2.3 ± 0.026 | 2.06 ± 0.022 | 2.25 ± 0.027 | 2.195 ± 0.018 |
| VVILARAKALGIKVTNP [RPL32] | 3.16 ± 0.14 | 3.2 ± 0.16 | 2.55 ± 0.12 | 2.93 ± 0.076 |
| KYAQDGAGIERELARIK [RPL3] | 3.54 ± 0.2 | 3.46 ± 0.16 | – | – |
| LKEILNVAKNMKTPSLT [RPO21] | 3.33 ± 0.12 | 3.06 ± 0.11 | 3.1 ± 0.072 | 3.47 ± 0.12 |
| KVVKTPGGILRAQHVKK [RPL34A] | 2.76 ± 0.074 | 2.83 ± 0.077 | 2.9 ± 0.064 | 2.71 ± 0.063 |
| LKFAVQVDKVTKEKVNG [RPL26A] | 3.23 ± 0.21 | 3.4 ± 0.16 | 2.71 ± 0.11 | 3.01 ± 0.069 |
| ENSAVAAKEGLALSSNI [COR1] | 1.84 ± 0.065 | 2.66 ± 0.064 | 2.49 ± 0.084 | 2.17 ± 0.053 |
| QLVYKRGFGKINKQRVP [RPL7A] | 2.46 ± 0.071 | 2.4 ± 0.079 | 3.24 ± 0.11 | 2.85 ± 0.059 |
| WNLLRSLYIFFTTLLES [YML103C/NUP188] | 2.08 ± 0.058 | 1.58 ± 0.044 | 1.69 ± 0.06 | 1.43 ± 0.028 |
| KDEETTEKARLIDFEYV [RRI2] | 3.21 ± 0.098 | 3.5 ± 0.14 | 3.56 ± 0.073 | 3.13 ± 0.11 |
| KHKKKHLKHENANDETT [RPB4] | 2.92 ± 0.053 | 2.84 ± 0.085 | 2.84 ± 0.11 | 3.19 ± 0.074 |
| EQTCVKLLDSGCENPAD [SRP72] | 3.26 ± 0.066 | 3.4 ± 0.085 | 2.91 ± 0.092 | 3.46 ± 0.073 |
| LQIESVTKETVHPRKSY [PRP8] | – | 3.02 ± 0.13 | 2.97 ± 0.054 | 3.11 ± 0.11 |
| IEVTIGIDQYSFNVKEN [AAR2] | 2.67 ± 0.053 | 2.75 ± 0.05 | 2.58 ± 0.047 | 2.76 ± 0.056 |
| KAGVEAISQSLRDESLT [PRE5] | 3.05 ± 0.079 | 3.09 ± 0.082 | 3.37 ± 0.082 | 3.07 ± 0.067 |
| NANQQFLPFNNSASNNG [SWI1] | 3 ± 0.052 | 2.97 ± 0.052 | 2.96 ± 0.042 | 3.02 ± 0.06 |
| ISLAVEGEPVNSPNYFV [COR1] | 3.09 ± 0.14 | 2.43 ± 0.094 | 2.83 ± 0.12 | 1.99 ± 0.065 |
| NSEYLKRRVTNLEFNYT [SMC2] | 2.38 ± 0.066 | 2.27 ± 0.1 | 2.5 ± 0.091 | 2.49 ± 0.084 |
| KKASKVTVDADIDDILK [ISW2] | 2.75 ± 0.081 | 3.18 ± 0.065 | 3 ± 0.058 | 3.1 ± 0.046 |
| PRFNRENKVSPADAAKK [RPS26A] | 3.45 ± 0.18 | 2.73 ± 0.17 | 2.98 ± 0.075 | 2.89 ± 0.12 |
| ALSAYHKVQTKLTRELE [RPS7B] | 2.4 ± 0.055 | 2.54 ± 0.058 | 2.33 ± 0.065 | 2.58 ± 0.043 |
| KLHHDLKLCLGDHSSVP [YMR129W/POM152] | 2.83 ± 0.058 | 3.09 ± 0.054 | 2.95 ± 0.053 | 2.96 ± 0.042 |
| NNNNNNNDDNGNNNNNN [MED2] | 3.277 ± 0.029 | 3.284 ± 0.023 | 3.327 ± 0.017 | 3.286 ± 0.023 |

| Sequence | protein stability index (doa10∆) | protein stability index (pdr5∆) | protein stability index (san1∆) | protein stability index (ubr1∆) |
| --- | --- | --- | --- | --- |
| SKLKEEEAALLIKERQE [ESC2] | 2.85 ± 0.074 | 2.88 ± 0.065 | 2.83 ± 0.043 | 2.9 ± 0.054 |
| LAMEAILNELEVFIGRV [YJR042W/NUP85] | 2.59 ± 0.12 | 2.93 ± 0.14 | 2.76 ± 0.15 | 2.51 ± 0.06 |
| FDIYNRDRKLITDKGTV [YJL039C/NUP192] | 3.18 ± 0.13 | 2.53 ± 0.093 | 2.86 ± 0.11 | 2.96 ± 0.083 |
| TGLLIARRTLQKLGLDE [RPL5] | 3.2 ± 0.13 | 3.05 ± 0.17 | 3.39 ± 0.094 | 3.18 ± 0.16 |
| YTREFVEAIRRSNQYQR [NUT2] | 2.26 ± 0.07 | 2.18 ± 0.05 | 2.88 ± 0.12 | 2.21 ± 0.082 |
| KKACIIFFDEIDAVGGA [RPT1] | 2.39 ± 0.052 | 2.67 ± 0.054 | 2.81 ± 0.055 | 2.73 ± 0.038 |
| PKEPRLKSQMDTSKALL [SKI6] | – | 3.17 ± 0.18 | – | – |
| VDDDQDYVVAPGVNREI [GRR1] | 3.17 ± 0.13 | 3.13 ± 0.15 | 3.31 ± 0.2 | 3.29 ± 0.2 |
| VDIDDPDMMVDSFTMPN [SNF2] | 3.27 ± 0.11 | 2.86 ± 0.094 | 2.71 ± 0.085 | 3.15 ± 0.089 |
| RENNFRVASDTVHEMEE [SMC4] | – | 3.36 ± 0.28 | 3.19 ± 0.13 | 2.95 ± 0.27 |
| TRNITDYSINSRYEPKV [PRE7] | 2.62 ± 0.053 | 2.7 ± 0.049 | 2.99 ± 0.046 | 2.88 ± 0.047 |
| KFILSGFIFTSMILEAI [RRI2] | 1.58 ± 0.06 | 1.2 ± 0.035 | 1.17 ± 0.11 | 1.11 ± 0.048 |
| NKVCRIEAASTTQDQCK [RPB8] | 2.66 ± 0.056 | 2.89 ± 0.07 | 2.63 ± 0.075 | 2.93 ± 0.063 |
| QRILEVLGTPDQKIWPY [SSN3] | 2.2 ± 0.076 | 1.45 ± 0.057 | 1.76 ± 0.093 | 1.6 ± 0.068 |
| FAVIYLCDIDEVSDFDE [DIB1] | 1.46 ± 0.13 | 2.16 ± 0.1 | 1.51 ± 0.17 | 1.64 ± 0.14 |
| KTFEIKEIKTNEYVIKT [YMR129W/POM152] | 2.58 ± 0.1 | 2.25 ± 0.089 | 1.92 ± 0.091 | 2.02 ± 0.047 |
| KDDMKVDDAIELALKTL [PRE9] | 2.76 ± 0.25 | 3.52 ± 0.1 | 3.18 ± 0.077 | 3.65 ± 0.09 |
| QFPEIAYPGKLICPQYG [CSL4] | 2.01 ± 0.054 | 2.11 ± 0.059 | 1.94 ± 0.1 | 2.17 ± 0.053 |
| IRGNLMGKRVDFSARTV [RPO21] | – | 2.76 ± 0.24 | – | 2.5 ± 0.26 |
| NIVHNFKERQMMVSYPK [AAR2] | 3.04 ± 0.13 | 2.33 ± 0.1 | 1.9 ± 0.15 | 2.19 ± 0.18 |
| ISAPSMEDEILSLGMDF [BRN1] | 3.15 ± 0.057 | 3.23 ± 0.05 | 3.19 ± 0.05 | 3.12 ± 0.044 |
| AAASLPSKKLKTEDGFV [RPC82] | 3.21 ± 0.1 | 3.09 ± 0.1 | 2.84 ± 0.091 | 3.04 ± 0.065 |
| MGSRRYDSRTTIFSPEG [PRE9] | 3.36 ± 0.2 | 3.01 ± 0.17 | 2.89 ± 0.19 | 3.06 ± 0.15 |
| NLSSLIVEINNVSNTFN [YJL041W/NSP1] | 2.45 ± 0.043 | 2.72 ± 0.046 | 2.62 ± 0.04 | 2.58 ± 0.032 |
| NDPNAAVNMTQNIMTLP [MED6] | 2.97 ± 0.14 | 2.95 ± 0.089 | 2.71 ± 0.08 | 3.11 ± 0.059 |
| PNIRELGVKNLGLCCLL [YCG1] | 2.91 ± 0.25 | – | 1.87 ± 0.21 | 1.46 ± 0.061 |
